According to patent publication US20220378887A1 (GENOIMMUNE THERAPEUTICS, published 2022):

B1: STIDESPIFK polypeptide (GLCE; SEQ ID NO: 7) (peptide)
peptide: STIDESPIFK
notes: Synthesized mutant neoantigen peptide; also called high-frequency mutant polypeptide
B2: TTAPFLSGK polypeptide (CTNNB1; SEQ ID NO: 9) (peptide)
peptide: TTAPFLSGK
notes: as for B1
B3: VVVGAGDVGK polypeptide (KRAS; SEQ ID NO: 15) (peptide)
peptide: VVVGAGDVGK
notes: Synthesized mutant KRAS neoantigen peptide; also called high-frequency mutant polypeptide
B4: RTIEQLTLK polypeptide (ARHGEF11; SEQ ID NO: 8) (peptide)
peptide: RTIEQLTLK
notes: as for B1

The binders below were run against T1, HLA-A*11:01 (MHC-I molecules on the surfaces of T2 cells) (human) (assay: T2 cell MHC-I stabilisation assay, flow cytometry with FITC anti-HLA-A*11:01 antibody).
T1 construct: It only names the antibody against 'the corresponding HLA typing (HLA-A*11:01)'; also called HLA molecules

Row | Binder | FI (fluorescence index)
1 | B1 | 4.09
2 | B2 | 1.02
3 | B3 | 1.66
4 | B4 | 1.57
